Publication PMC4300558 (Cell Communication and Signaling : CCS, 2015)
Like-named read-outs stand apart in the source and are kept apart here.

Legend:
[1] = biological target: prolactin receptor (Homo sapiens) (UniProt P16471); details: cited from earlier work
[2] = biological target: prolactin receptor (Homo sapiens) (UniProt P16471); details: cited from earlier work; remark: listed apart in the source
[3] = biological target: T1, extracellular domain of the human prolactin receptor (human, UniProt P16471 25-234, biotin (site not stated; in the phage ELISA)); experiment: ELISA; competition with phage-displayed sAB A8
T1 chain: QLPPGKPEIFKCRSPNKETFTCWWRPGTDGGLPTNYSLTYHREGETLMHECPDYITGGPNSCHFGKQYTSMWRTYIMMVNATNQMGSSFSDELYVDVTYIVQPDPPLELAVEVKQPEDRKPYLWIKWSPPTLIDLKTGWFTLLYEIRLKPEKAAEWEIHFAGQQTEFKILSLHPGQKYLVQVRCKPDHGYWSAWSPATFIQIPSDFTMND

[4] = biological target: T1, extracellular domain of the human …; experiment: ELISA; competition with phage-displayed sAB A9
[5] = biological target: T1, extracellular domain of the human …; experiment: ELISA; competition with phage-displayed sAB A10
[6] = biological target: T2, extracellular domain of the human prolactin receptor (human, UniProt P16471 25-234, biotin (site not stated; in the phage ELISA)); experiment: ELISA; competition phage ELISA; biotinylated receptor immobilised on streptavidin plates; hGH or PRL titrated against phage-displayed sAB; details: both partners purified
T2 construct: prolactin receptor, human, extracellular domain (two tandem fibronectin domains FN1 and FN2); No methods in the main text; also called hPRL-R; hPRL-R ECD
T2 sequence (looked up): T1 chain

[7] = biological target: T3, extracellular domain of the human prolactin receptor (human, UniProt P16471, biotin (site not stated; in the phage ELISA)); experiment: SPR; Biacore 2000; dissociation constant calculated from the on and off rates; details: both partners purified
T3 construct: prolactin receptor, human, extracellular domain (two tandem fibronectin domains FN1 and FN2); No methods in the main text; also called hPRL-R; hPRL-R ECD

In the case of growth hormone (from UniProt P01241), the Kd [1] is listed as 1 nM.

In the case of prolactin (from UniProt P01236), the Kd [2] is listed as 6 nM.

B1: human prolactin (ligand, UniProt P01236 29-227, looked up)
chain: LPICPGGAARCQVTLRDLFDRAVVLSHYIHNLSSEMFSEFDKRYTHGRGFITKAINSCHTSSLATPEDKEQAQQMNQKDFLSLIVSILRSWNEPLYHLVTEVRGMQEAPEAILSKAVEIEEQTKRLLEGMELIVSQVHPETKENEIYPVWSGLPSLQMADEESRLSAYYNLLHCLRRDSHKIDNYLKLLKCRIIHNNNC
notes: prolactin, human; Labelled with cy5 in the internalization experiment; also called hPRL; PRL
With B1 the IC50 [3] was 11 nM, the IC50 [4] was 13 nM and the IC50 [5] was 9 nM. B1: binds [6].

B2: synthetic antibody (sAB) A8 (Fab, V domains shown)
VH: EVQLVESGGGLVQPGGSLRLSCAASGFNFSSSSMHWVRQAPGQGLEWVAYISPYYGSTSYADSVKGRFTISADTSKNTAYLQMNSLRAEDTAVYYCARSYGYVYWNAYSSGMDYWGQGTLVTVSS
VL: DIQMTQSPSSLSASVGDRVTITCRASQSVSSAVAWYQQKPGKAPKLLIYSASSLYSGVPSRFSGSRSGTDFTLTISSLQPEDFATYYCQQYYSYYYPFTFGQGTKVEIK
notes: Fab scaffold before loop H1; heavy chain loop 1 (H1), randomized loop; Fab scaffold between H1 and H2; heavy chain loop 2 (H2), randomized loop; Fab scaffold between H2 and H3; heavy chain loop 3 (H3), randomized loop; Fab scaffold after H3 (rest of VH and CH1); Fab scaffold before loop L3; light chain loop 3 (L3), randomized loop; Fab scaffold after L3 (rest of VL and CL); Only the four …
B2 showed a Kd [7] of 5.6 nM, a koff [7] of 0.00054 s⁻¹ and a kon [7] of 96000 M⁻¹ s⁻¹.
